Earlier results, collected in publication PMC11204982.

Biological target: CD20 (Homo sapiens) (UniProt P11836)
Chain of UniProt P11836 (P11836 whole entry): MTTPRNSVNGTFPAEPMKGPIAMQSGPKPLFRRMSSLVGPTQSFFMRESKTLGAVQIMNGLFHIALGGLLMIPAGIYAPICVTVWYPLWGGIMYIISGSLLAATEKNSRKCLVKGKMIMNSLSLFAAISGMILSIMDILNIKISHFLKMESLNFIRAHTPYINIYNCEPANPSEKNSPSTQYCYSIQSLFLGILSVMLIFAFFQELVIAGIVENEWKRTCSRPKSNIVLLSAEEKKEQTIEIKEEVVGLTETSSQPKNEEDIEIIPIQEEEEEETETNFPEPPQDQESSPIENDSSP

rituximab
Kd: 5.2 nM
